Laboratory results taken from US6998260.

Target: human fibrinogen (UniProt P02671)
Sequence (P02671 20-629, chain 1 of 3): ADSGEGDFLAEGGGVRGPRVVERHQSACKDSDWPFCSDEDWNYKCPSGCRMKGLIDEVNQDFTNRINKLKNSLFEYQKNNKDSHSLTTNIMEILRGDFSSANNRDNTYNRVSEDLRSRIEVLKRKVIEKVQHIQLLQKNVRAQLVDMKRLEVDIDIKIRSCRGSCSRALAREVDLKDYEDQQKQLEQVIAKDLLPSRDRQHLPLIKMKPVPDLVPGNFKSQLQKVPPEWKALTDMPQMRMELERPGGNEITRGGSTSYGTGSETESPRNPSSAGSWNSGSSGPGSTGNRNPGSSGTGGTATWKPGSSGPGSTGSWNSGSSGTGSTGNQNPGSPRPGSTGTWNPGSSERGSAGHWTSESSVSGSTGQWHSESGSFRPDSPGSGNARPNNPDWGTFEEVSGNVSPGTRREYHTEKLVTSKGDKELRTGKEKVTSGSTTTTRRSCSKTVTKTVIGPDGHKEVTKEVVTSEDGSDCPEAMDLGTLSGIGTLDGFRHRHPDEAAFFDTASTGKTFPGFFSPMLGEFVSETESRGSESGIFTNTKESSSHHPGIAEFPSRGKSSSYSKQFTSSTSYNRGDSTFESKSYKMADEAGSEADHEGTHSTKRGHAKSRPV
Sequence (chain, as listed by the source, chain 2 of 3): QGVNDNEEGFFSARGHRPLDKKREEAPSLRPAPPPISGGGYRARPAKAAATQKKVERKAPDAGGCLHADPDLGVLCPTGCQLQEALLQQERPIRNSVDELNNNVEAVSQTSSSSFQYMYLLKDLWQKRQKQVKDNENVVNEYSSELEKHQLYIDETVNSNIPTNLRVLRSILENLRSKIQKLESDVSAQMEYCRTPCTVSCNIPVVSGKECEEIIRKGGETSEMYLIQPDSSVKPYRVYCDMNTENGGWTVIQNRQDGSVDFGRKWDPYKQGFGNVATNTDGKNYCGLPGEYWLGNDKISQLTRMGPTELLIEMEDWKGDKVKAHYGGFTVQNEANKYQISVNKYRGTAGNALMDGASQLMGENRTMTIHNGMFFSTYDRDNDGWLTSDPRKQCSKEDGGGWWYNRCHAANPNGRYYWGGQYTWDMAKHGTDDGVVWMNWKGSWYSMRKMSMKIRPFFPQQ
Sequence (chain, as listed by the source, chain 3 of 3): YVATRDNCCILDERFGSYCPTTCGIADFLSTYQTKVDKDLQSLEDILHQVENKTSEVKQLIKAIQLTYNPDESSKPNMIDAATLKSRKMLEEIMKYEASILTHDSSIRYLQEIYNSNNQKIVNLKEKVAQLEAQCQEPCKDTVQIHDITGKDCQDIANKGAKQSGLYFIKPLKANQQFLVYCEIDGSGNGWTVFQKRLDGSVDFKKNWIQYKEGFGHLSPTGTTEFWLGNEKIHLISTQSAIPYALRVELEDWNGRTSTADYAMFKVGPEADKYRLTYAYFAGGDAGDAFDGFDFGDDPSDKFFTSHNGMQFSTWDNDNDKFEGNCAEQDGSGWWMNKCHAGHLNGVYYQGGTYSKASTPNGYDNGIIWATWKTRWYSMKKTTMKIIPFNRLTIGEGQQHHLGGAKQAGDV

Chain of recombinant human β-II tryptase (from pPIC9-HumTryN102K, expressed in Pichia pastoris) (chain, as listed by the source): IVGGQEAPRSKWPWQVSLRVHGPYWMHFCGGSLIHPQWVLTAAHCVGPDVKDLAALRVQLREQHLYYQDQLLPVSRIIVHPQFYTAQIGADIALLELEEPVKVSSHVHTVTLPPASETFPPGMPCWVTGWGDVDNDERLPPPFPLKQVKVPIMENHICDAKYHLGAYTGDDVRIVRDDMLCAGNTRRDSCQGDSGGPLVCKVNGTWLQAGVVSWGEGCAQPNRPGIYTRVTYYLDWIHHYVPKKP
Chain of recombinant human β-I tryptase (from pPIC9-HumTry, expressed in Pichia pastoris) (chain, as listed by the source): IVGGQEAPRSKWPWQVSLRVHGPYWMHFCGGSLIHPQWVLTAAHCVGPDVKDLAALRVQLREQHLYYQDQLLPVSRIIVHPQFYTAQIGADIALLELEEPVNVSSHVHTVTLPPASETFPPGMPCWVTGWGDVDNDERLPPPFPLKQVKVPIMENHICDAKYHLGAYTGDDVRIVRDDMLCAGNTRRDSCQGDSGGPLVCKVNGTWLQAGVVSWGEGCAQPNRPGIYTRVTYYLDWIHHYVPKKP

Row | Substance | fibrinogen cleavage (SDS-PAGE of fibrinogen subunits after 60 min incubation)
1 | recombinant human β-I tryptase (from pPIC9-HumTry, expressed in Pichia pastoris) | The a and β subunits were efficiently hydrolyzed by the recombinant β-I and β-II tryptase enzymes even during cold incubation.
2 | recombinant human β-II tryptase (from pPIC9-HumTryN102K, expressed in Pichia pastoris) | The a and β subunits were efficiently hydrolyzed by the recombinant β-I and β-II tryptase enzymes even during cold incubation.
3 | β-tryptase isolated from a cadaver (native β) | Native β-tryptase was less efficient at fibrinogeneolysis
